According to patent US20170044239A1:

Tests used:
[1] = target: hemagglutinin on BS/07 H1N1 virus (A/Brisbane/59/2007) (Influenza A virus A/Brisbane/59/2007 (H1N1)); assay: cell-based or functional assay
[2] = target: BS/07 H1 HA (recombinant ectodomain of hemagglutinin from A/Brisbane/59/2007, H1N1) (Influenza A virus A/Brisbane/59/2007 (H1N1))

Substance: F10 IgG (antibody)
- IC50, neutralization of BS/07 H1N1 infection [1]: 1.85 µg/mL

Substance: F10 scFv (phage-free soluble, E-tag)
- normalized binding affinity [2]: 1
- normalized neutralizing potency against BS/07 H1N1 [1]: 1
